Laboratory results: the MegaScale stability set (Tsuboyama et al. 2023)

B1: r16_88_TrROS_Hall (parent)
chain: EVIELKIKFKTPEQREKLKEIAKKLNAEVVEEKDGEVIIRFKTPEQAERALKEAEKLGAEVEL

Variants of: B1
Test: folding stability dG (cDNA display proteolysis); higher = more stable
Conditions: PBS, room temperature

In order of rising “folding stability dG” value:
1. EVIELKIKFKTPEQREKLKEIAKKLNAEVVEEKDGEVIDRFKTPEQAERALKEAEKLGAEVEL [I39D]  0.533 kcal/mol
2. EVIELKIKFKTPEQREKLKEIAKKPNAEVVEEKDGEVIIRFKTPEQAERALKEAEKLGAEVEL [L25P]  3.67 kcal/mol
3. EVIELDIKFKTPEQREKLKEIAKKLNAEVVEEKDGEVIIRFKTPEQAERALKEAEKLGAEVEL [K6D]  3.67 kcal/mol
4. EVIELKIKFKTPEQREKLKEIAKKLNAEVVEEKDGEVIIRFKTPEQAERQLKEAEKLGAEVEL [A50Q]  3.84 kcal/mol
5. EVIELKIKFKTPEQREKLKEIAPKLNAEVVEEKDGEVIIRFKTPEQAERALKEAEKLGAEVEL [K23P]  3.93 kcal/mol
6. EVIELKIKLKTPEQREKLKEIAKKLNAEVVEEKDGEVIIRFKTPEQAERALKEAEKLGAEVEL [F9L]  4 kcal/mol
7. EVIEGKIKFKTPEQREKLKEIAKKLNAEVVEEKDGEVIIRFKTPEQAERALKEAEKLGAEVEL [L5G]  4.02 kcal/mol
8. EVIELKIKFKTPEQREKLKEIAKKLNAEVVEEKDGEVIIRFKTPEQAERALIEAEKLGAEVEL [K52I]  4.03 kcal/mol
9. EVIELKIKAKTPEQREKLKEIAKKLNAEVVEEKDGEVIIRFKTPEQAERALKEAEKLGAEVEL [F9A]  4.06 kcal/mol
10. VVIELKIKFKTPEQREKLKEIAKKLNAEVVEEKDGEVIIRFKTPEQAERALKEAEKLGAEVEL [E1V]  4.06 kcal/mol
11. EVIELKIKFKTPEQREKLKEIAKKLNAEVVEEKDGEVIIRFKTPEQAERALKEWEKLGAEVEL [A54W]  4.08 kcal/mol
12. HVIELKIKFKTPEQREKLKEIAKKLNAEVVEEKDGEVIIRFKTPEQAERALKEAEKLGAEVEL [E1H]  4.08 kcal/mol
13. EVIELKIKFKTPEQAEKLKEIAKKLNAEVVEEKDGEVIIRFKTPEQAERALKEAEKLGAEVEL [R15A]  4.13 kcal/mol
14. EVIELKIQFKTPEQREKLKEIAKKLNAEVVEEKDGEVIIRFKTPEQAERALKEAEKLGAEVEL [K8Q]  4.14 kcal/mol
15. EIIELKIKFKTPEQREKLKEIAKKLNAEVVEEKDGEVIIRFKTPEQAERALKEAEKLGAEVEL [V2I]  4.15 kcal/mol
16. EVIELKIKFKTPEQREKLKEAAKKLNAEVVEEKDGEVIIRFKTPEQAERALKEAEKLGAEVEL [I21A]  4.15 kcal/mol
17. EPIELKIKFKTPEQREKLKEIAKKLNAEVVEEKDGEVIIRFKTPEQAERALKEAEKLGAEVEL [V2P]  4.16 kcal/mol
18. EVIELKIKFFTPEQREKLKEIAKKLNAEVVEEKDGEVIIRFKTPEQAERALKEAEKLGAEVEL [K10F]  4.18 kcal/mol
19. EVIELKIKFKTPEQREKLKEIAKKLNAEVVEEKDGEVIIRFMTPEQAERALKEAEKLGAEVEL [K42M]  4.18 kcal/mol
20. EVIELKIKFGTPEQREKLKEIAKKLNAEVVEEKDGEVIIRFKTPEQAERALKEAEKLGAEVEL [K10G]  4.21 kcal/mol
21. EVIELKIKFKTPEQREKLKEIAKKLNAEVVEEKDGEVIIRFKTPEQAERALKEAEDLGAEVEL [K56D]  4.21 kcal/mol
22. EVIELKIKFKTPEQREKLKEIAKKLNAEVVEEKDGEVIIRFKTPEQAERALKEAGKLGAEVEL [E55G]  4.22 kcal/mol
23. EVIELKIKFKTPEQREKLKEIAKKLNCEVVEEKDGEVIIRFKTPEQAERALKEAEKLGAEVEL [A27C]  4.25 kcal/mol
24. EVIELKIKFKTPEQREKLKEIAKKLNAEVVEEKDGEVIIRFKTPEQAERAWKEAEKLGAEVEL [L51W]  4.25 kcal/mol
25. EVIELKIKFKTPEQREKLKEIAKKLNAEVVEEKDGEVIIRFKTPEQARRALKEAEKLGAEVEL [E48R]  4.25 kcal/mol
26. EVIELKIKFKTPEQREKLKEIAKKLNAEVVEEKDGEVIIRFKTPEQAERALDEAEKLGAEVEL [K52D]  4.25 kcal/mol
27. EVIELKIKFKTPEQREKLKEIAKKLNAEVVEEKDGEVIIRFKTPEQAERALKEAEKLQAEVEL [G58Q]  4.25 kcal/mol
28. EVIELSIKFKTPEQREKLKEIAKKLNAEVVEEKDGEVIIRFKTPEQAERALKEAEKLGAEVEL [K6S]  4.26 kcal/mol
29. EVIELKIKFKTPEQREKLKEIAKKLNAEVVEEPDGEVIIRFKTPEQAERALKEAEKLGAEVEL [K33P]  4.27 kcal/mol
30. ELIELKIKFKTPEQREKLKEIAKKLNAEVVEEKDGEVIIRFKTPEQAERALKEAEKLGAEVEL [V2L]  4.27 kcal/mol
31. CVIELKIKFKTPEQREKLKEIAKKLNAEVVEEKDGEVIIRFKTPEQAERALKEAEKLGAEVEL [E1C]  4.27 kcal/mol
32. EVIELKIKFKTPEQREKLKEIAKKLNAEVVEEKDGEVIIRFKTPELAERALKEAEKLGAEVEL [Q46L]  4.28 kcal/mol
33. EVIELKIKFKTPEQREKLKEIAKKLNAEVVEEKDGEVIIRFKTPEQAERALKEAEKLGAEVER [L63R]  4.28 kcal/mol
34. EVIEQKIKFKTPEQREKLKEIAKKLNAEVVEEKDGEVIIRFKTPEQAERALKEAEKLGAEVEL [L5Q]  4.28 kcal/mol
35. EVIELKIKFKTPEQREKLKEIAKKLNAEVVEEKDGEVIIRFKTPEQAERALKEAEKLGAENEL [V61N]  4.28 kcal/mol
36. EVIELKIKFKTPEQREKLKEIAKKLNAAVVEEKDGEVIIRFKTPEQAERALKEAEKLGAEVEL [E28A]  4.29 kcal/mol
37. EVIELKIKFKTPEQREKLKEIAKKLNAEVVEEKDGEVIIRFKTPEQAERALKEAEKLGAEVEN [L63N]  4.3 kcal/mol
38. EVIELKIKFKTQEQREKLKEIAKKLNAEVVEEKDGEVIIRFKTPEQAERALKEAEKLGAEVEL [P12Q]  4.3 kcal/mol
39. EVIELKIKFKTPEQREKLKEIAKKLNAEVVEEKDGEVIIRFKTPEQAERMLKEAEKLGAEVEL [A50M]  4.3 kcal/mol
40. EVIELKIKFKTPEQREKLKEIAKKLNAEVVEEKDGEVIIRFKTPEQAERALKEAEKLAAEVEL [G58A]  4.3 kcal/mol
41. EVIELKIKFKTPEQRAKLKEIAKKLNAEVVEEKDGEVIIRFKTPEQAERALKEAEKLGAEVEL [E16A]  4.32 kcal/mol
42. EVIELKIKFKTPEQREKLKEIAKKLNAEVVEEKDGEVIIRFKTPEQAERALKEAEKLGAEVED [L63D]  4.33 kcal/mol
43. EVIELKIKFKTPEQREKLKEIAKKLNAEVVEMKDGEVIIRFKTPEQAERALKEAEKLGAEVEL [E32M]  4.33 kcal/mol
44. EVIELKIKFKTPEQREKLKEIAKKLNAEVVEEKDGEVQIRFKTPEQAERALKEAEKLGAEVEL [I38Q]  4.33 kcal/mol
45. EVIELKIVFKTPEQREKLKEIAKKLNAEVVEEKDGEVIIRFKTPEQAERALKEAEKLGAEVEL [K8V]  4.34 kcal/mol
46. EHIELKIKFKTPEQREKLKEIAKKLNAEVVEEKDGEVIIRFKTPEQAERALKEAEKLGAEVEL [V2H]  4.34 kcal/mol
47. EVIELKIKFKTPEQREKLKEIAKKLNAEVVTEKDGEVIIRFKTPEQAERALKEAEKLGAEVEL [E31T]  4.35 kcal/mol
48. EVIELKIKFKTPEQREKLKEIAKKLNAEVVEEKDGEVIIRFKTPEQAERALKEAEKLGAEVVL [E62V]  4.35 kcal/mol
49. EVIELKIKFKTPEQRTKLKEIAKKLNAEVVEEKDGEVIIRFKTPEQAERALKEAEKLGAEVEL [E16T]  4.36 kcal/mol
50. EVIELKIKFKTPEQREKLKEIAKKLNAEVVEEKDGVVIIRFKTPEQAERALKEAEKLGAEVEL [E36V]  4.36 kcal/mol
51. EVIELKIKFKTPEQREKLKAIAKKLNAEVVEEKDGEVIIRFKTPEQAERALKEAEKLGAEVEL [E20A]  4.37 kcal/mol
52. EVIELKIKFTTPEQREKLKEIAKKLNAEVVEEKDGEVIIRFKTPEQAERALKEAEKLGAEVEL [K10T]  4.38 kcal/mol
53. EVIELKIKFKTPEQREKLKEIAKKLNAEVVEEKDGEVIIRFKTPQQAERALKEAEKLGAEVEL [E45Q]  4.38 kcal/mol
54. EVIELKIKFKTPEQREKLKEIAKKLNAEKVEEKDGEVIIRFKTPEQAERALKEAEKLGAEVEL [V29K]  4.39 kcal/mol
55. EVIELKIKFKTPEQREKLKEIAKKLNAEVVEEKDGEVIIRFKTPEQAEQALKEAEKLGAEVEL [R49Q]  4.41 kcal/mol
56. EVIELKIKFKTPEQREKLKEIAKKLNAEVVEEKDGEVIIRFKTPEQAERALKEACKLGAEVEL [E55C]  4.43 kcal/mol
57. EVIELKVKFKTPEQREKLKEIAKKLNAEVVEEKDGEVIIRFKTPEQAERALKEAEKLGAEVEL [I7V]  4.44 kcal/mol
58. EVIELKIKFKTPEQREKLKEIAKKLNAEVVEEKDGEVIIRFKTPEQAERALLEAEKLGAEVEL [K52L]  4.44 kcal/mol
59. EVIELKIKFKTPEQREKLKEIAKKLNAEVVEEKDGEVIIRFKTPEQAERALGEAEKLGAEVEL [K52G]  4.44 kcal/mol
60. EVIELKIKFRTPEQREKLKEIAKKLNAEVVEEKDGEVIIRFKTPEQAERALKEAEKLGAEVEL [K10R]  4.47 kcal/mol
61. EVIELKIKFKTPEQREKLKEIAKKLNAEVVEEKDGEVIIRFKTPEQAWRALKEAEKLGAEVEL [E48W]  4.47 kcal/mol
62. EVIELKIKFKTPEQREKLKEIAKKLNAEVVEEQDGEVIIRFKTPEQAERALKEAEKLGAEVEL [K33Q]  4.49 kcal/mol
63. EVIELKIKFKTPEQREKLKEIAKKLNAECVEEKDGEVIIRFKTPEQAERALKEAEKLGAEVEL [V29C]  4.49 kcal/mol
64. EVIELKIKFKTPEQREKLKEIAKKLNAEVVEHKDGEVIIRFKTPEQAERALKEAEKLGAEVEL [E32H]  4.49 kcal/mol
65. EVIELKIKFKTPEQREKLKEIAKKLNAEVVEEKDGEVIIRFKTPEQAERALKEAELLGAEVEL [K56L]  4.5 kcal/mol
66. EVIELKIKFKTPEQREKLKEIAKKLNAEVVEEKDGEVIIRFKTPEQAERALKEAEKLGAEVAL [E62A]  4.5 kcal/mol
67. EVIELKIKFKTPEQREKLKEIAKKLNAEVVEEKIGEVIIRFKTPEQAERALKEAEKLGAEVEL [D34I]  4.5 kcal/mol
68. EVIELKIKFKTPEQREKLKEIAKKLNAEVVEEKDIEVIIRFKTPEQAERALKEAEKLGAEVEL [G35I]  4.51 kcal/mol
69. EVIELKIKFKTPEQREKLKEIAKKLNAEVVEEKDGEVIIRFKTPEQAERALKEAEKLGAEAEL [V61A]  4.51 kcal/mol
70. EVIELKIKFKTPEQREKLKEIAKKLNAEVVEEKDGEVIIRFKTPEQAERALKEASKLGAEVEL [E55S]  4.51 kcal/mol
71. EVIELKIKFKTPEQREKLKEIAKKLNAEVVEEKDGEVIIRFKTPEQFERALKEAEKLGAEVEL [A47F]  4.52 kcal/mol
72. EVIELKIKFKTPEQREKLKEIAKKLNAEVVEEKDGEVIIRFKTPEQAERALKEAEGLGAEVEL [K56G]  4.53 kcal/mol
73. EVIELKIKFKTPEQREKYKEIAKKLNAEVVEEKDGEVIIRFKTPEQAERALKEAEKLGAEVEL [L18Y]  4.53 kcal/mol
74. EVAELKIKFKTPEQREKLKEIAKKLNAEVVEEKDGEVIIRFKTPEQAERALKEAEKLGAEVEL [I3A]  4.54 kcal/mol
75. EVIELKIKFKTPEQREKLKEIAMKLNAEVVEEKDGEVIIRFKTPEQAERALKEAEKLGAEVEL [K23M]  4.54 kcal/mol
76. EVIELKIKFKTPEQREKLKEIAKKLNAEVVEEKDGEVIIRFKTPEQAEDALKEAEKLGAEVEL [R49D]  4.56 kcal/mol
77. EVIELKIKFKTPEQREKLKEIACKLNAEVVEEKDGEVIIRFKTPEQAERALKEAEKLGAEVEL [K23C]  4.61 kcal/mol
78. EVIELKIKFKTPEQREKLKEIAKKLNAENVEEKDGEVIIRFKTPEQAERALKEAEKLGAEVEL [V29N]  4.62 kcal/mol
79. EVIELKIKFKTPEQREKLKEIAKKLNAEVVEEKDGRVIIRFKTPEQAERALKEAEKLGAEVEL [E36R]  4.62 kcal/mol
80. EVIELKIKFKTPSQREKLKEIAKKLNAEVVEEKDGEVIIRFKTPEQAERALKEAEKLGAEVEL [E13S]  4.66 kcal/mol
81. EVIELKAKFKTPEQREKLKEIAKKLNAEVVEEKDGEVIIRFKTPEQAERALKEAEKLGAEVEL [I7A]  4.69 kcal/mol
82. EVIELKIKFKTPEQREKLKEIAKWLNAEVVEEKDGEVIIRFKTPEQAERALKEAEKLGAEVEL [K24W]  4.77 kcal/mol
83. EVIELKYKFKTPEQREKLKEIAKKLNAEVVEEKDGEVIIRFKTPEQAERALKEAEKLGAEVEL [I7Y]  4.82 kcal/mol
84. EVIELKIKFKTPEQREKLKFIAKKLNAEVVEEKDGEVIIRFKTPEQAERALKEAEKLGAEVEL [E20F]  4.98 kcal/mol
85. EVIELKIKFKTPFQREKLKEIAKKLNAEVVEEKDGEVIIRFKTPEQAERALKEAEKLGAEVEL [E13F]  4.99 kcal/mol
